Key:
[1] = tested on: yeast-induced fever model in SD rats; assay: Yeast-induced fever model of SD rats; type: in vivo; conditions: for Body temperature 2 hours after modeling / Body temperature 8 hours after modeling / Body temperature 4 hours after modeling / Body temperature 6 hours after modeling: 20% yeast s.c.; for Body temperature 2 hours after modeling: model group 37.5 ± 0.1; for Body temperature 8 hours after modeling: model group 37.6 ± 0.1; for Body temperature 4 hours after modeling / Body temperature 6 hours after modeling: model group 37.7 ± 0.1
Method: • Animals: 230-260 grams of male SD rats; • Medicines: yeast (OXOID LP0021), aspirin (SIGMA A2093), protein BD-3; • Instruments: electronic balance (SARTORIUS BP121S type), electronic clinical thermometer (CITIZEN CT-513W type). • Experiment grouping: • Normal control group; • Model group: yeast fever model; • Positive control group: Aspirin 300 mg/kg group; • Protein BD-3, 10 mg/kg group, 50 mg/kg group. • Method:
Preparation of experimental animals: After the experimental animals adapt to the experimental environment (temperature 22° C.±2° C., relative humidity 50%±2%) for 1 day. Pre-adaptation to measure rectal temperature at 8:00 and 15:00, rats were fasted and water was taken freely 12 h before experiment, and let the animal to empty its feces before measuring the rectal temperature. Apply petroleum jelly to the electronic thermometer probe before each temperature measurement. Insert the rat rectum 2 cm (can be marked at 2 cm to ensure that the depth of each insertion is consistent), and record the body temperature after the reading is stable.
Subcutaneous injection of dry yeast to replicate rat fever model: The body temperature of the rats was measured before modeling. Qualified rats with a body temperature of 36.2-37.3° C. were selected and randomly divided into groups with 8 rats in each group. After oral administration of aspirin and different doses of protein BD-3, 20% yeast suspension (10 ml/kg) was injected subcutaneously immediately, and the normal control group was injected intraperitoneally with an equal volume of normal saline. The body temperatures of the rats were monitored after 2 hours for a total of 8 hours.
According to the body temperature measured at each time point on the day of the experiment, calculate the mean, standard deviation and standard error of the body temperature of each group of rats. The data of each group was compared with TTEST, and P<0.05 was considered as a significant difference.

[2] = tested on: PLO-induced epilepsy in mice; assay: Pilocarpine (PLO) induced convulsive epilepsy in mice; type: in vivo, ICR mice; conditions: for mortality rate / Grade IV seizure rate / Cases of Grade IV / Cases of deaths: PLO 225 mg/kg i.p.; for mortality rate / Cases of deaths: model group 0; for Grade IV seizure rate: model group 80%; for Cases of Grade IV / Cases of deaths: of 10 mice; for Cases of Grade IV: 30 min observation, model group 8; for Grade IV seizure incubation period / Grade II seizure incubation period / Grade III seizure incubation period: mean ± SEM; for Grade IV seizure incubation period: maximum recorded 1800 seconds, model group 894 ± 164; for Grade II seizure incubation period: model group 86 ± 5; for Grade III seizure incubation period: model group 142 ± 6
Method: • Animals: male ICR mice; • Drugs: Pilocarpine HCl (PLO, pilocarpine, pilocarpine hydrochloride), Diazepam (diazepam tablets), protein BD-3. • Experiment grouping: • Model group: • Diazepam 2 mg/kg group; • Protein BD-3, 50 mg/kg group, 200 mg/kg group.
The drug was administered once in the afternoon the day before modeling, PLO-225 mg/kg (modeling agent) was injected intraperitoneally 1 hour after the test drug was administered intragastrically on the day of modeling. And positive drug can be administered once 20 minutes before modeling. Observe for 30 minutes after PLO injection.
Observation indicators: (1)Seizure situation: the time of seizures from Grade II to Grade IV; (2)the time to death.
Seizure grade: Refer to Racine grading standard: Grade 0: No response; Grade I: manifested as twitching of facial muscles or the corners of the mouth; Grade II: can nod; Grade III: twitching of one limb; Grade IV: rigidity or body twitching; Grade V: generalized epilepsy (generalized tonic seizures).
Count the number of Grade IV seizures and deaths in each group of mice in the experiment; Grade II, III and IV incubation period. […] Chi-square test was used for statistics of the number of cases. The mean value and standard error of the incubation period were calculated, and TTEST was used to compare the model group with other groups. P<0.05 was considered as a significant difference.

[3] = tested on: phenol red excretion in mice; assay: Expectorant test, phenol red excretion method in mice; type: in vivo, ICR mice; conditions: for Phenol red excretion: X ± SEM, solvent control 0.506 ± 0.040
Method: • Animals: male ICR mice; • Drugs and reagents: Mucosolvan (ambroxol hydrochloride tablets), phenol red, sodium bicarbonate, protein BD-3; • Instruments: centrifuge (Sigma-3K15 type), balance (XS105DU type), Microplate tester (BIO-TEK type). • Experiment Grouping: • Solvent control group; • Mucosolvan 30 mg/kg group; • Protein BD-3, 20 mg/kg group, 50 mg/kg group.
The animals were fasted and water was taken freely 16 hours before the experiment. Orally administered Mucosolvan and different doses of protein BD-3 (administration volume 10 ml/kg) in groups, and the solvent control group was given the same volume of distilled water. One hour later, 2.5% phenol red solution was injected intraperitoneally. Mice were sacrificed by neck dislocation after 30 minutes. Take a trachea from below the thyroid cartilage to the branch of the trachea, and put the trachea into 3 ml 5% NaHCO3 solution and let it stand for 3 hours. Take 1 ml of the supernatant and centrifuge at 3000 rpm for 5 minutes. Measure and record the absorbance at 546 nm. According to the standard curve of phenol red, the excretion of phenol red was calculated.
Record the time point of oral administration, the time point of intraperitoneal injection of 2.5% phenol red solution, and the time point of taking the trachea respectively; The absorbance of each group of samples was measured by the microplate reader at 546 nm, Calculate the excretion of phenol red according to the standard curve of phenol red. Calculate the mean and standard error of the data in each group, and use TTEST to compare the solvent control group with other groups, and P<0.05 is considered as a significant difference.

[4] = summary statement, no dose given

B1: BD-3: recombinant keratin, amino acid sequence SEQ ID NO:1, expressed in E. coli, band around 43 kD; tested material prepared in Example 4 (protein, listed as Bos taurus)
chain: MSYSCCLPNLSFRSSCSSRPCVPSSCCGTTLPGACNIPANVGSCNWFCEGSFNGSEKETMQFLNDRLASYLEKVRQLERDNAELESRILERSQQKILANKAENARLVVQIDNAKLAADDFRTKYQTELGLRQLVESDINGLRRILDELTLCKSDLEAQVESLKEELICLKQNHEQEVNTLRSQLGDRLNVEVDAAPTVDLNRVLNETRAQYEALVETNRRDVEEWYIRQTEELNKQVVSSSEQLQSYQAEIIELRRTVNALEVELQAQHNLRDSLENTLTETEARYSCQLAQVQGLIGNVESQLAEIRSDLERQNQEYQVLLDVRARLECEINTYRGLLDSEDCKLPCNPCATTNASSVGSCVTNPCTPCGPRSRFGPCNTFGC
[1]; BD-3 10 mg/kg oral
  Body temperature 2 hours after modeling: 37.0 ± 0.2 °C
  Body temperature 8 hours after modeling: 37.4 ± 0.1 °C
  Body temperature 4 hours after modeling: 37.3 ± 0.1 °C
  Body temperature 6 hours after modeling: 37.4 ± 0.1 °C
[1]; BD-3 50 mg/kg oral
  Body temperature 2 hours after modeling: 36.9 ± 0.1 °C
  Body temperature 8 hours after modeling: 37.3 ± 0.1 °C
  Body temperature 4 hours after modeling: 37.2 ± 0.1 °C
  Body temperature 6 hours after modeling: 37.4 ± 0.1 °C
[1]; different doses of BD-3 (10 mg/kg, 50 mg/kg), at 2 hours and 4 hours after modeling, P<0.05 vs model group
  Effect on body temperature of model rats (in words): can significantly inhibit the increase in body temperature of model rats
[1]; [4]
  Summary: antipyretic effect in yeast fever model (in words): can significantly inhibit the increase in body temperature at 2 hours and 4 hours after modeling
[2]; BD-3 50 mg/kg
  Epilepsy Grade IV incubation period vs model group (in words): statistically different from the model group
  Grade IV seizure incubation period: 1573 ± 138 s
  Grade II seizure incubation period: 91 ± 6 s
  Grade III seizure incubation period: 155 ± 12 s
[2]; BD-3 50 mg/kg intragastric
  mortality rate: 0
  Grade IV seizure rate: 30%
  Cases of Grade IV: 3
  Cases of deaths: 0
[2]; BD-3 200 mg/kg
  Epilepsy Grade III incubation period vs model group (in words): statistically different from the model group
  Grade IV seizure incubation period: 1181 ± 203 s
  Grade II seizure incubation period: 99 ± 5 s
  Grade III seizure incubation period: 183 ± 12 s
[2]; BD-3 200 mg/kg intragastric
  mortality rate: 0
  Grade IV seizure rate: 60%
  Cases of Grade IV: 6
  Cases of deaths: 0
[2]; [4]
  Summary: effect on epilepsy incubation period, PLO model (in words): can significantly prolong the incubation period of class III and class IV epilepsy in mice
[3]; BD-3 20 mg/kg oral
  Phenol red excretion: 0.750 ± 0.085 µg/mL
[3]; BD-3 20 mg/kg, P<0.05
  Excretion of phenol red vs solvent control (in words): significantly increased the excretion of phenol red
[3]; BD-3 50 mg/kg oral
  Phenol red excretion: 0.706 ± 0.114 µg/mL
[3]; [4]
  Summary: expectorant effect (in words): has obvious expectorant effect

Reference: patent US20240124556A1, “KERATIN BD-3, PREPARATION METHOD THEREFOR AND PHARMACEUTICAL COMPOSITION AND USE THEREOF” (INSTITUTE OF MATERIA MEDICA, CHINESE ACADEMY OF MEDICAL …, priority 2019, published 2024)
